Data on two molecules can be found in publication doi:10.1101/2023.02.09.527830.

This data set has as its target Lassa virus nucleoprotein NP (WT) (Lassa virus (AV strain), UniProt Q9DQX7). Kind of data set: native MS.

ACACAAAGACCC (ssRNA) [12 nt RNA]: the binding result is reported as “binds”.
The same measure for UAGGAAUCU (ssRNA) [9 nt RNA]: “binds”.
